The values below come from patent US20230310628A1, “Multi-Targeted Multi-Valent Ligand Drug Particles for the Treatment and Prevention of Diseases and Conditions” (priority 2017, published 2023).

“And” between values parts separate entries of the source, which are not always exact repeats. Identical values can stand only once.

The target in experiment [1] is human epidermal growth factor receptor 2 (HER2) (human) (UniProt P04626). Kind of experiment: dose-uptake, fluorometry of lysed cells, 37 °C, 4 hr; MKN-7 cells; 5 F5 scFv per liposome.
Experiment [2] shares this target. Description: dose-uptake, fluorometry of lysed cells, 37 °C, 4 hr; MKN-7 cells; 10 F5 scFv per liposome.
For experiment [3], the target named is epidermal growth factor receptor (EGFR) (human) (UniProt P00533). Kind of experiment: dose-uptake, fluorometry of lysed cells, 37 °C, 4 hr; MDA-468 cells (EGFR overexpressed, negligible HER2); 5 F5 scFv per liposome; no significant uptake compared to non-targeted liposomes.
For experiment [4] the target is unchanged. Description: dose-uptake, fluorometry of lysed cells, 37 °C, 4 hr; MDA-468 cells (EGFR overexpressed, negligible HER2); 15 F5 scFv per liposome; no significant uptake compared to non-targeted liposomes.
In experiment [5] the target is human epidermal growth factor receptor 2 (HER2) (human) (UniProt P04626). Description: dose-uptake, fluorometry of lysed cells; SK-BR-3 cells; 15 F5 scFv per liposome.
Experiment [6] shares this target. Description: dose-uptake, fluorometry of lysed cells, 37 °C, 4 hr; BT-474 cells; 10 F5 scFv per liposome.
The target of experiment [7] is epidermal growth factor receptor (EGFR) (human) (UniProt P00533). Description: dose-uptake, fluorometry of lysed cells, 37 °C, 4 hr; MDA-468 cells (EGFR overexpressed, negligible HER2); 10 F5 scFv per liposome; no significant uptake compared to non-targeted liposomes.
The target in experiment [8] is human epidermal growth factor receptor 2 (HER2) (human) (UniProt P04626). Description: dose-uptake, fluorometry of lysed cells; SK-BR-3 cells; 10 F5 scFv per liposome.
Experiment [9] shares this target. Description: dose-uptake, fluorometry of lysed cells, 37 °C, 4 hr; BT-474 cells; 5 F5 scFv per liposome.
Experiment [10] has the same target. Description: dose-uptake, fluorometry of lysed cells, 37 °C, 4 hr; BT-474 cells; 15 F5 scFv per liposome.
Experiment [11] has the same target. Description: dose-uptake, fluorometry of lysed cells, 37 °C, 4 hr; SK-BR-3 cells; plateau at ˜200 µM PL.
Experiment [12] shares this target. Description: dose-uptake, fluorometry of lysed cells, 37 °C, 4 hr; MKN-7 cells.
For experiment [13] the target is unchanged. Description: flow cytometry (MFI) of DiD-labelled liposomes, 75 µM PL, 37 °C, 4 hr; MKN-7 cells (moderate HER2 and EGFR).
Experiment [14] shares this target. Kind of experiment: flow cytometry (MFI) of DiD-labelled liposomes, 75 µM PL, 37 °C, 4 hr; BT-474 cells; mono-targeted counterpart with 5 F5 scFv per liposome.
The target is the same in experiment [15]. Kind of experiment: dose-uptake, fluorometry of lysed cells, 37 °C, 4 hr; MKN-7 cells; 15 F5 scFv per liposome.
The target of experiment [16] is epidermal growth factor receptor (EGFR) (human) (UniProt P00533). Kind of experiment: flow cytometry (MFI) of DiD-labelled liposomes, 75 µM PL, 37 °C, 4 hr; MDA-468 cells (EGFR overexpressed, negligible HER2).
Experiment [17] shares this target. Kind of experiment: dose-uptake, fluorometry of lysed cells, 37 °C, 4 hr; MDA-468 cells (EGFR overexpressed, negligible HER2); 20 cetuximab-Fab′ and 5 F5 scFv per liposome.
The target in experiment [18] is human epidermal growth factor receptor 2 (HER2) (human) (UniProt P04626). Kind of experiment: dose-uptake, fluorometry of lysed cells, 37 °C, 4 hr; SK-BR-3 cells (HER2 overexpressed, negligible EGFR).
Experiment [19] concerns the target epidermal growth factor receptor (EGFR) (human) (UniProt P00533). Description: dose-uptake, fluorometry of lysed cells, 37 °C, 4 hr; MDA-468 cells (EGFR overexpressed, negligible HER2); 10 cetuximab-Fab′ and 5 F5 scFv per liposome.
The target is the same in experiment [20]. Kind of experiment: dose-uptake, fluorometry of lysed cells, 37 °C, 4 hr; MDA-468 cells (EGFR overexpressed, negligible HER2); 20 cetuximab-Fab′ and 10 F5 scFv per liposome.
Experiment [21] has the same target. Description: dose-uptake, fluorometry of lysed cells, 37 °C, 4 hr; MDA-468 cells (EGFR overexpressed, negligible HER2); 10 cetuximab-Fab′ and 10 F5 scFv per liposome.
Experiment [22] shares this target. Description: dose-uptake, fluorometry of lysed cells, 37 °C, 4 hr; MDA-468 cells (EGFR overexpressed, negligible HER2); 20 cetuximab-Fab′ and 15 F5 scFv per liposome.

Regarding “anti-HER2 F5 scFv-conjugated immunoliposomes”, the LS/Cell Max (liposomes per cell) (liposomes/cell) amounted to 8100 in experiment [1]; 4900 in experiment [2]; 5300 in [3]; 8000 in [4]; 72000 in [6]; 1100 in experiment [7]. Further, the figures for the LS/Cell Max (liposomes per cell) (liposomes/cell) in experiment [9], in experiment [10] and in [15] were 40000, 68000 and 4100, respectively. Further, the observed cellular uptake (liposomes per cell) (liposomes/cell) in experiment [5] and in [8] was 230000 each time. In experiment [11], the F5 scFv per cell at the plateau is 3e+06 ligands/cell. Moreover, the liposomes per cell at the plateau (liposomes/cell) in [11] was 200000 and 300000. In addition, the liposomes per cell (liposomes/cell) in experiment [12] was less than 20000. Also, the values for the fold binding over non-targeted liposomes (NT) in experiment [13] and in experiment [14] were 300 fold and 200 fold, respectively.
The substance “anti-HER2 and anti-EGFR dual-targeted immunoliposomes” yielded a fold binding over non-targeted liposomes (NT) in experiment [16] of 500 fold. Further, the Anti-EGFR Lg/Cell Max (ligands per cell) in experiment [17] stood at 1.2e+06 ligands/cell; in experiment [19], 270000 ligands/cell; in experiment [20] it was 1.1e+06 ligands/cell; in experiment [21], 220000 ligands/cell; in experiment [22], 1.2e+06 ligands/cell. In addition, the LS/Cell Max (liposomes per cell) (liposomes/cell) in [17] came to 61000; in [19] it was 27000; in experiment [20] it was 53000; in experiment [21], 22000; in [22] it was 59000. Further, the F5 scFv per cell in [18] is 2e+06 ligands/cell and 3e+06 ligands/cell.
